Numbering of substitutions follows the chain as printed.
B1: first version of humanized R3 antibody (R3-huVH(a) with R3-huVK) (antibody, human IgG1, V domains shown)
VH: QVQLQQSGAEVKKPGSSVKVSCKASGYTFTNYYIYWVRQAPGQGLEWIGGINPTSGGSNFNEKFKTRVTITVDESTNTAYMELSSLRSEDTAFYFCARQGLWFDSDGRGFDFWGQGSTVTVSS
VL: DIQMTQSPSSLSASVGDRVTITCRSSQNIVHSNGNTYLDWYQQTPGKAPKLLIYKVSNRFSGVPSRFSGSGSGTDFTFTISSLQPEDIATYYCFQYSHVPWTFGQGTKLQITR
notes: R3 CDRs grafted on human Eu (VH) and REI (VK) frameworks; human IgG1 / kappa constant regions; also called humanized (1) R3; version 1
B2: reshaped R3VH-K66A67 with huVKR3 (antibody, V domains shown)
VH: B1 VH with R67K, V68A
VL: DIQMTQSPSSLSASVGDRVTITCRSSQNIVHSNGNTYLDWYQQTPGKAPKLLIYKVSNRFSGVPSRFSGSGSGTDFTFTISSLQPEDIATYYCFQYSHVPWTFGQGTKLQIT
notes: Human IgG1 / kappa; also called 66 and 67 changes
B3: hybrid humanized R3VH/murine R3VK (antibody, V domains shown)
VH: B1 VH
VL: DVLMTQIPLSLPVSLGDGASISCRSSQNIVHSNGNTYLDWYLQKPGQSPNLLIYKVSNRFSGVPDRFRGSGSGTDFTLKISRVEAEDLGVYYCFQYSHVPWTFGGGTKLEIK
notes: Human gamma-1 and kappa constant regions; tested as concentrated supernatant of transfected NSO cells; The hybrid was made before the further VH versions, so its humanized VH is read as the first version

How the values were obtained:
[1] = target: T1, human epidermal growth factor receptor (human, UniProt P00533 25-1210); assay: RRA, 125I-EGF competition on human placenta microsomal fraction
T1 construct: whole, on cells; also called EGF-R; EGF receptor

[2] = target: T1, human epidermal growth factor receptor; assay: RRA, concentrated supernatants of transfected NSO cells

binding result [1] | binding result [2] | Binder
no binding | – | B1
no binding | – | B2
– | no binding | B3

— patent US20020065398A1 (CENTRO DE INMUNOLOGIA MOLECULAR, published 2002)
